According to patent US7294496B1, “Cloned human lysophospholipase” (The Regents of the University of California, priority 2000, dated 2007):

Experiments:
Format in all cases: biochemical
[1] = PLA2 activity assay toward plasmenylcholine; settings: for Activity: 100 mM Hepes, 2 mM DTT
Description: (§1) The protein concentration was determined by the Bio-Rad protein assay, using bovine serum albumin (BSA) as standard. Protein purity was examined using 12% SDS-PAGE and Coomassie blue staining. LysoPLA activity was measured at 40° C. in the assay buier containing LysoPC, 100 mM Tris-HCl (pH 8.0) and 10 mM LMe. Cold 1-palmitoyl-sn-glycero-3-phosphorylcholine (125 μM, unless indicated otherwise) was mixed with 1-[14 C]palmitoyl-sn-glycero-3-phosphorylcholine (100,000 cpm) in a total volume of 0.5 ml. The assay was initiated by adding an aliquot of enzyme solution to the substrate mixture and incubating for the desired time. The released fatty acid was extracted by the modified Dole method and then quantified by scintillation counting. The PLA2 activity assay was carried out, using various ^14C-labeled phospholipid substrates under various conditions as given in the text. The rat brain iPLA2 was purified as described elsewhere (H. C. Yang et al., manuscript in preparation incorporated herein). Human recombinant cPLA2 was a gift from Drs. J. D. Sharp and R. M. Kramer at Lilly Laboratories. 1-[^14C]Palmitoyl-sn-glycero-3-phosphorylcholine and 1-palmitoyl-2-[1-^14C]palmitoyl-sn-glycerol-3-phosphorylcholine were purchased from Amersham. 1-Palmitoyl-2-[1-^14C]arachidonoyl-sn-glycerol-3-phosphorylcholine was purchased from DuPont-NEN. All unlabeled phospholipids were purchased from Avanti Polar Lipids. Triton X-100 (TX-100) and PIP2 were obtained from CalBiochem.
The sn-2 labeled PlsCho (plasmenylcholine or 1-O— (Z)-1P-alkenyl-2-arachidonoyl-sn-glycero-3-phosphocholine) was synthesized as follows. A total of 4 μmol [1-14C]arachidonic acid (from NEN, with specific activity […]) was diluted 10 times with cold arachidonic acid in 250 μl distilled methylene chloride (Fisher Scientific). To this 0.04 mmol p(N,N-dimethyl)amino pyridine (Aldrich) and 0.08 mmol 1,3-dicyclohexyl carbodiimide (Aldrich) were added to yield the arachidonoyl anhydride upon 1 h of stirring. Lysoplasmenylcholine (0.06 mmol, from Serdary) dissolved in 200 μl methylene chloride and 50 μl pyridine (Fisher Scienticc) was added to the arachidonoyl anhydride solution with 0.03 μmol dimethylaminopyridine and left stirring for 8 h. The reaction progress was monitored by thin layer chromatography (Merck) using a mobile phase of chloroform:methanol:triethyl amine:water (65:30:1.5:3.5), and retardation factors were 0.6 and 0.2 for PlsCho and LysoPlsCho, respectively. The separation of the product was carried out by preparative layer chromatography (Merck) in the above mobile system. The reaction yielded a total of 3.6 mg (7.7 μmol) of radiolabeled PlsCho (specific activity 0.18 μCi/μmol) by quantitative phosphate analysis.
(§2) When we first purified the mouse LysoPLA from P388D1 cells, no other enzymatic activities (PLA1, PLA2, acyltransferase, transacylase and esterase) were found. Therefore, it appears to be a LysoPL-specific LysoPLA. Similar results were obtained for the rat LysoPLA and the relative rates towards different LysoPL substrates were reported [Sugimoto et al., (1996) J. Biol. Chem. 271, 7705-11]. However, a recently sequenced rabbit enzyme that shares high sequence homology (approx. 97%) to the rat/mouse LysoPLA was reported to have both PLA2 and LysoPLA activities [Portilla, et al., […] J. Am. Soc.Nephrol. 9, 1178-86]. The specific activities, however, were only 10 nmol/min/mg for PLA2 activity and 20 nmol/min/mg for LysoPLA activity. The PLA2 activity was also reported to be selective for PlsCho substrate with arachidonic acid at the sn2 position. To determine whether hLysoPLA also expresses PLA2 activity, we have explored its ability to hydrolyze arachidonic acid labeled PlsCho as well as other phospholipid substrates under a variety of conditions.

[2] = PLA2 activity assay toward PAPC; settings: 100 mM Hepes, 2 mM DTT
Description: as §1, §2

[3] = PLA2 activity assay toward DPPC; settings: DPPC/TX-100 mixed micelles (100 μM:400 μM); 100 mM Hepes, pH 7.5, 2 mM DTT, 5 mM EDTA
Description: as §1, §2

B1: Human Recombinant cPLA2: human recombinant cytosolic Ca2+-dependent phospholipase A2, gift from Lilly Laboratories (protein, UniProt P47712 1-749, looked up)
Cytosolic phospholipase A2: MSFIDPYQHIIVEHQYSHKFTVVVLRATKVTKGAFGDMLDTPDPYVELFISTTPDSRKRTRHFNNDINPVWNETFEFILDPNQENVLEITLMDANYVMDETLGTATFTVSSMKVGEKKEVPFIFNQVTEMVLEMSLEVCSCPDLRFSMALCDQEKTFRQQRKEHIRESMKKLLGPKNSEGLHSARDVPVVAILGSGGGFRAMVGFSGVMKALYESGILDCATYVAGLSGSTWYMSTLYSHPDFPEKGPEEINEELMKNVSHNPLLLLTPQKVKRYVESLWKKKSSGQPVTFTDIFGMLIGETLIHNRMNTTLSSLKEKVNTAQCPLPLFTCLHVKPDVSELMFADWVEFSPYEIGMAKYGTFMAPDLFGSKFFMGTVVKKYEENPLHFLMGVWGSAFSILFNRVLGVSGSQSRGSTMEEELENITTKHIVSNDSSDSDDESHEPKGTENEDAGSDYQSDNQASWIHRMIMALVSDSALFNTREGRAGKVHNFMLGLNLNTSYPLSPLSDFATQDSFDDDELDAAVADPDEFERIYEPLDVKSKKIHVVDSGLTFNLPYPLILRPQRGVDLIISFDFSARPSDSSPPFKELLLAEKWAKMNKLPFPKIDPYVFDREGLKECYVFKPKNPDMEKDCPTIIHFVLANINFRKYRAPGVPRETEEEKEIADFDIFDDPESPFSTFNFQYPNQAFKRLHDLMHFNTLNNIDVIKEAMVESIEYRRQNPSRCSVSLSNVEARRFFNKEFLSKPKA
Question: With B1 as the molecule, how does the Activity ([1]; PisCho/PIP2/TX-100 mixed micelles (100 μM:3 μM:600 μM), pH 7.5, 80 μM Ca2+, 0.1 mg/ml BSA) read?
Answer: 13.58 ± 0.05 µmol/min/mg

Question: What about the “activity toward PlsCho relative to activity toward PAPC” value ([1]; in the presence of 3 mol % PIP2, same conditions) of the same molecule?
Answer: about 60%

Question: What about the Activity ([2]; PAPC/PIP2/TX-100 mixed micelles (97 μM:3 μM:400 μM), pH 7.5, 80 μM Ca2+, 0.1 mg/ml BSA) of the same molecule?
Answer: 21.81 ± 0.09 µmol/min/mg

B2: Rat brain iPLA2: Ca2+-independent phospholipase A2 purified from rat brain (protein, UniProt P97570 1-807, looked up)
85/88 kDa calcium-independent …: MQFFGRLVNTLSSVTNLFSNPFRVKEVSLADYASSERVREEGQLILLQNASNRTWDCVLVSPRNPQSGFRLFQLESEADALVNFQQYSSQLPPFYESSVQVLHVEVLQHLTDLIRNHPSWTVTHLAVELGIRECFHHSRIISCANSTENEEGCTPLHLACRKGDSEILVELVQYCHAQMDVTDNKGETAFHYAVQGDNPQVLQLLGKNASAGLNQVNNQGLTPLHLACQMGKQEMVRVLLLCNARCNIMGPGGFPIHTAMKFSQKGCAEMIISMDSNQIHSKDPRYGASPLHWAKNAEMARMLLKRGCDVDSTSASGNTALHVAVTRNRFDCVMVLLTYGANAGARGEHGNTPLHLAMSKDNMEMVKALIVFGAEVDTPNDFGETPAFIASKISKLITRKALLTLLKTVGADYHFPFIQGVSTEQSSAAGPHPFFSLDRTQPPTISLNNLELQDLMPVSRARKPAFILSSMRDEKRSHDHLLCLDGGGVKGLVIIQLLIAIEKASGVATKDLFDWVAGTSTGGILALAILHSKSMAYMRGVYFRMKDEVFRGSRPYESGPLEEFLKREFGEHTKMTDVKKPKVMLTGTLSDRQPAELHLFRNYDAPEAVREPRCTPNINLKPPTQPADQLVWRAARSSGAAPTYFRPNGRFLDGGLLANNPTLDAMTEIHEYNQDMIRKGQGNKVKKLSIVVSLGTGKSPQVPVTCVDVFRPSNPWELAKTVFGAKELGKMVVDCCTDPDGRAVDRARAWCEMVGIQYFRLNPQLGSDIMLDEVSDAVLVNALWETEVYIYEHREEFQKLVQLLLSP
Question: With B2 as the molecule, how does the Activity ([1]; PisCho/TX-100 mixed micelles (100 μM:600 μM), pH 7.5, 5 mM EDTA) read?
Answer: 0.53 ± 0.03 µmol/min/mg

Question: And the “fold lower activity toward PlsCho than toward DPPC” value ([1]; TX-100 mixed micelles)?
Answer: 10 fold

Question: What about the “fold lower activity toward PlsCho than toward PAPC” value ([1]; TX-100 mixed micelles) of the same molecule?
Answer: 4 fold

Question: And the Activity ([2]; PAPC/TX-100 mixed micelles (100 μM:400 μM), pH 7.5, 5 mM EDTA)?
Answer: 2.0 ± 0.04 µmol/min/mg

Question: What about the Activity [3] of the same molecule?
Answer: 5.6 ± 0.2 µmol/min/mg
